What was measured:
[1] = molecular target: MERTK (UniProt Q12866); assay: phosphorylation enrichment, bacterial display (enrichment ratio); higher = better substrate or ligand; peptides without Tyr show the background
[2] = tested on: c-Abl (mouse); assay: as above
[3] = molecular target: Hck (UniProt P08631); assay: as above
[4] = molecular target: Fes (UniProt P07332); assay: as above
[5] = molecular target: EPHB2 (UniProt P29323); assay: as above
[6] = molecular target: EPHB1 (UniProt P54762); assay: as above
[7] = tested on: AncSZ; assay: as above
[8] = molecular target: FGFR3 (UniProt P22607); assay: as above
[9] = molecular target: FGFR1 (UniProt P11362); assay: as above
[10] = tested on: Fer (mouse); assay: as above
[11] = tested on: c-Src; assay: as above
[12] = molecular target: Jak2 (UniProt O60674); assay: as above
[13] = molecular target: Fyn (UniProt P06241); assay: as above
[14] = molecular target: SHP2-C SH2; assay: SH2 binding enrichment of the phosphorylated peptide, bacterial display (enrichment ratio); higher = better substrate or ligand; peptides without Tyr show the background
[15] = molecular target: Grb2 SH2 (UniProt P62993); assay: as above
[16] = molecular target: c-Src SH2; assay: as above
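Throughout, for SH2 binding enrichment of the phosphorylated peptide, bacterial display: peptide library displayed on the E. coli surface as eCPX fusions, selected cells deep-sequenced, score is each peptide's frequency after selection divided by its frequency in the input.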
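Throughout, for phosphorylation enrichment, bacterial display: 11-residue human phosphosite peptides and single-mutation variants displayed on the E. coli surface, counted by deep sequencing, each peptide's frequency after selection divided by its frequency in the unselected input library; frequency after pTyr selection over input frequency; kinase dosed for 20-30% of maximal phosphorylation in three min.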

EPHB2, sequence (P29323 whole entry, looked up): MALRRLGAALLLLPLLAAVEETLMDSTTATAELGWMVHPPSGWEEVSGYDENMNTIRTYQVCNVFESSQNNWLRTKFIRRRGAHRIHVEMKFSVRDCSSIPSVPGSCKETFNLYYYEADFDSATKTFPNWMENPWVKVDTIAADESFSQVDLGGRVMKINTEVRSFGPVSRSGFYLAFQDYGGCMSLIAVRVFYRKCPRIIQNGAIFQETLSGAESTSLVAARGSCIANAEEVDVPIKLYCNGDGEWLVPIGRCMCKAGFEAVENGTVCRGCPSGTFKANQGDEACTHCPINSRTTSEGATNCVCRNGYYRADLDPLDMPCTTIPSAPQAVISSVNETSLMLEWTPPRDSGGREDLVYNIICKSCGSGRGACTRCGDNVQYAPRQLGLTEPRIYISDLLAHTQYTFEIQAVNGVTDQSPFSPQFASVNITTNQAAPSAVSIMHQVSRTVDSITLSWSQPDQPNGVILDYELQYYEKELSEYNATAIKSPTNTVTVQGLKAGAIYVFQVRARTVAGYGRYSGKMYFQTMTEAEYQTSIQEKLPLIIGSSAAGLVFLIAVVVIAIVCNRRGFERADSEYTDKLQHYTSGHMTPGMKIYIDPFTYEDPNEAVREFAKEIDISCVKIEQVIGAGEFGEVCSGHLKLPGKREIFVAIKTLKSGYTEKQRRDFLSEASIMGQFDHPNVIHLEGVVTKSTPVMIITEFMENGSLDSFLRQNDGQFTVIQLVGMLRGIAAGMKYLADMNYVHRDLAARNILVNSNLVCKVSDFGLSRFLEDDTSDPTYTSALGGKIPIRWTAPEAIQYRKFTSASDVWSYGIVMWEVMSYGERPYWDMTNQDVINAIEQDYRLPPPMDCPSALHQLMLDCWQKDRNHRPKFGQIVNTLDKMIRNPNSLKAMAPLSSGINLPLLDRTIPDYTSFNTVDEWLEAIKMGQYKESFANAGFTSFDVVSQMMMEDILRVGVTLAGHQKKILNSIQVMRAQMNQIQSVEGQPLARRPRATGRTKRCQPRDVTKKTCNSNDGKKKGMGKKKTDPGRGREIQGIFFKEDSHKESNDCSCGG
MERTK, sequence (Q12866 whole entry, looked up): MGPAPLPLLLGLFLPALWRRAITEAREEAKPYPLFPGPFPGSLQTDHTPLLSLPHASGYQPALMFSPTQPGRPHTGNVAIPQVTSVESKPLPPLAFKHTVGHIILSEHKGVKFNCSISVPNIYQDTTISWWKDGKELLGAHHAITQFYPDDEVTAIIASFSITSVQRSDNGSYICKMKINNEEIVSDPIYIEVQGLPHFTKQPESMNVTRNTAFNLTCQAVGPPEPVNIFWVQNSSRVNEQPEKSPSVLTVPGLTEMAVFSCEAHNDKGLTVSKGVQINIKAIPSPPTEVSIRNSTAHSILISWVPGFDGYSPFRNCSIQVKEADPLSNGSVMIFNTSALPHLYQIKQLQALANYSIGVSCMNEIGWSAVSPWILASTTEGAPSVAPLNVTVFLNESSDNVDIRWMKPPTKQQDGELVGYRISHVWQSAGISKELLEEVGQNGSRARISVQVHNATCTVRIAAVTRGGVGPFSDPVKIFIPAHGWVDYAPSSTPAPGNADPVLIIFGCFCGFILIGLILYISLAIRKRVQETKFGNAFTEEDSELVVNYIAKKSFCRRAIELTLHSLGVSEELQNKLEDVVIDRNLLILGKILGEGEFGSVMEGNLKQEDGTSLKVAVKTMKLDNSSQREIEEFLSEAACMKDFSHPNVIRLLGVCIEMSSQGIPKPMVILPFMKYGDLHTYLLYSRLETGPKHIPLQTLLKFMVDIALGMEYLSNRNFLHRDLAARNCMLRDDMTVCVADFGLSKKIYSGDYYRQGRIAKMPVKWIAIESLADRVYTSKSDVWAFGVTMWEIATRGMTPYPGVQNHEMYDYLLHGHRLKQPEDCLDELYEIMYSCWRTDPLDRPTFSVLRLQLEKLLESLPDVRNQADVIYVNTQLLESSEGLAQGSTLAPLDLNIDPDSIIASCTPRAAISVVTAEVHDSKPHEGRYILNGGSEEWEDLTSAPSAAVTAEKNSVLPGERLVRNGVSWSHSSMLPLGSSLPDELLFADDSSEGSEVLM
Fes, sequence (P07332 whole entry, looked up): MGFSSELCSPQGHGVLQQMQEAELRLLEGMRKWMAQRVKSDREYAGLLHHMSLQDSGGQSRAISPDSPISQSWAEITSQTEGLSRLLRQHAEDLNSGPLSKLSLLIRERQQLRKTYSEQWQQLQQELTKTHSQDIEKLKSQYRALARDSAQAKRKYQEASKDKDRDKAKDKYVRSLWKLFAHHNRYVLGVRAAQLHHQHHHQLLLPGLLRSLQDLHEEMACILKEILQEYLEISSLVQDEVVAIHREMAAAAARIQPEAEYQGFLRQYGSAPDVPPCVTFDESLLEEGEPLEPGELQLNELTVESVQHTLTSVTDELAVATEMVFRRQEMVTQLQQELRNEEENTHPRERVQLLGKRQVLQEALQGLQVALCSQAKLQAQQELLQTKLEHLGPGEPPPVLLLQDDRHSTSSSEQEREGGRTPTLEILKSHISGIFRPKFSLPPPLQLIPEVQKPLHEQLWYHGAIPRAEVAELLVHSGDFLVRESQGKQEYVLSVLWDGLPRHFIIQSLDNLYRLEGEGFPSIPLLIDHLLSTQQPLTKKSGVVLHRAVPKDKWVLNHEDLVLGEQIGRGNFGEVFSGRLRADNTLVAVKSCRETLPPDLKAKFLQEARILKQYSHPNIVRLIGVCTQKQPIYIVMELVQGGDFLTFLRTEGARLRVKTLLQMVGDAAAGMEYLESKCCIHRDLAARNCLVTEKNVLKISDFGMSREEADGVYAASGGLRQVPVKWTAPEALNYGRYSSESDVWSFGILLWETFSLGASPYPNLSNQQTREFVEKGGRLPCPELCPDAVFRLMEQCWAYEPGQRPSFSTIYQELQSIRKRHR
FGFR1, sequence (P11362 whole entry, looked up): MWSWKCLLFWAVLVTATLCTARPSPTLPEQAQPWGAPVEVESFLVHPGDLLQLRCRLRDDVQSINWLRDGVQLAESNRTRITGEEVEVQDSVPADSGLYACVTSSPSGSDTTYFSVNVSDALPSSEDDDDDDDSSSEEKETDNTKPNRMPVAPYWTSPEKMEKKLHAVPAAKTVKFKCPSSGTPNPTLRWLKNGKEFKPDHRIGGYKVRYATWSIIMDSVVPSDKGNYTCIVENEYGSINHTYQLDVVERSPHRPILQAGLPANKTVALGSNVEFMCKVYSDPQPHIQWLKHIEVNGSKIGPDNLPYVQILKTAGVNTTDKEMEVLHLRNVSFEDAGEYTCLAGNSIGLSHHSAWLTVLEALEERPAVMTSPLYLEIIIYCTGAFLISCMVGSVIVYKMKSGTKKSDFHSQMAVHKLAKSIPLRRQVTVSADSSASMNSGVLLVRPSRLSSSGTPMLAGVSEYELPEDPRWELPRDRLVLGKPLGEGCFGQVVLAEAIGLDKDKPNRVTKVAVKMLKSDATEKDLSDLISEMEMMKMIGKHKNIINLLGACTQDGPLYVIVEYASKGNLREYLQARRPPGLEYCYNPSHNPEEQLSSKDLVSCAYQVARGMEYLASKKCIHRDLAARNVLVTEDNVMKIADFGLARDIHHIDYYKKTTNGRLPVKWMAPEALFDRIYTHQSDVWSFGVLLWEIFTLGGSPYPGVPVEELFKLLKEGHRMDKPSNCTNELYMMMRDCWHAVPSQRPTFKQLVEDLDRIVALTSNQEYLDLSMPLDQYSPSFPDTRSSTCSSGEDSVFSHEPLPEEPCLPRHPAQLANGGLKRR
Hck, sequence (P08631 whole entry, looked up): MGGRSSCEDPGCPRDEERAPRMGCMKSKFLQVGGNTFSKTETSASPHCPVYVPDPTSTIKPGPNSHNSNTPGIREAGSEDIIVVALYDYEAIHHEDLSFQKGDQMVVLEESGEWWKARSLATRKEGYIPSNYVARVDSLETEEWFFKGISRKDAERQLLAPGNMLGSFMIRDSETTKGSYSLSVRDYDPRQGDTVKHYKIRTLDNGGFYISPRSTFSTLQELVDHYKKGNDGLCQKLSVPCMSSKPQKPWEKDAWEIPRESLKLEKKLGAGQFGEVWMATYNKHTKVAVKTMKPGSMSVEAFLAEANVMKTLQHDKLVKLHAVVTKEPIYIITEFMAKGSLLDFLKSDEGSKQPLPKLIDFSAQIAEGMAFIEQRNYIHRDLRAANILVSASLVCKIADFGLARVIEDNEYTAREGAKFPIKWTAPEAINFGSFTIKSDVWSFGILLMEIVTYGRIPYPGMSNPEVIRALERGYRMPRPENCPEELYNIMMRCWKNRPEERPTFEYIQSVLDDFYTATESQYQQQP
Grb2 SH2, sequence (P62993 whole entry, looked up): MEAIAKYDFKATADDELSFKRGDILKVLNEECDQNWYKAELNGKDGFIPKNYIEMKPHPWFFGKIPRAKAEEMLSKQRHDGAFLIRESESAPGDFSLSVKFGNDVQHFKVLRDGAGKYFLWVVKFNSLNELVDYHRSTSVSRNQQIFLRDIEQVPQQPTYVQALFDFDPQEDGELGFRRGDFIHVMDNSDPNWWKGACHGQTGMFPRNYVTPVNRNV
Fyn, sequence (P06241 whole entry, looked up): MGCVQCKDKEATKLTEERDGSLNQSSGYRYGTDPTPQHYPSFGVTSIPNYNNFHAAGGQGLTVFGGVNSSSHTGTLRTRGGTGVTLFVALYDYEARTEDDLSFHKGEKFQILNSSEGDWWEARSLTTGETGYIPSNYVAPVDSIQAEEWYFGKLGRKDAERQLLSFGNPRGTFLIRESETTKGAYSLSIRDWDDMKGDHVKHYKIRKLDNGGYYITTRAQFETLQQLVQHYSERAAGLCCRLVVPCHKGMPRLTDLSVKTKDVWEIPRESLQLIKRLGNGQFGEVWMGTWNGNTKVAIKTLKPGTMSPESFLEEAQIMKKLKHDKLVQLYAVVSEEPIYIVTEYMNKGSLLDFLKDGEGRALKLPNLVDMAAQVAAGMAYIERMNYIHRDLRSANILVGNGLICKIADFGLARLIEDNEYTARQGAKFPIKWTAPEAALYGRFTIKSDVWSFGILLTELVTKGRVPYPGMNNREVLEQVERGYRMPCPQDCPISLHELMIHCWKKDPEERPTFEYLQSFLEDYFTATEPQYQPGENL

Sequence | phosphorylation enrichment [1] | phosphorylation enrichment [2] | phosphorylation enrichment [3] | phosphorylation enrichment [4] | phosphorylation enrichment [5] | phosphorylation enrichment [6] | phosphorylation enrichment [7] | phosphorylation enrichment [8] | phosphorylation enrichment [9] | phosphorylation enrichment [10] | phosphorylation enrichment [11] | phosphorylation enrichment [12] | phosphorylation enrichment [13] | SH2 binding enrichment [14] | SH2 binding enrichment [15] | SH2 binding enrichment [16]
SYVVRYNQPRV [GRIN2D_Y736_M733V] | 0.375 | 0.717 | 0.475 | 0.891 | 0.478 | 0.478 | 0.843 | 0.588 | 0.452 | 0.419 | 0.405 | 0.725 | 0.433 | 1.09 | 1.05 | 1.31
IHYPPYTDWNQ [ALDH3B2_Y365] | 0.429 | 0.938 | 0.655 | 0.933 | 0.676 | 0.527 | 0.889 | 0.881 | 1.14 | 2.21 | 0.573 | 0.736 | 0.512 | 0.71 | 0.883 | 1.25
QRKRAYVEIEY [MAK16_Y282] | 0.416 | 2.01 | 0.672 | 0.752 | 0.463 | 0.362 | 0.696 | 0.663 | 0.623 | 0.441 | 0.68 | 0.73 | 0.585 | 0.718 | 0.675 | 4.61
WIPIQYLIISE [NOG_Y222_P223L] | 0.436 | 0.858 | 0.573 | 1.43 | 0.723 | 0.624 | 1.2 | 0.838 | 0.58 | 0.666 | 0.457 | 1.2 | 0.474 | 1.12 | 1.21 | 0.923
TNGFTYGSSHQ [MANEA_Y331] | 0.441 | 0.412 | 0.443 | 0.576 | 0.31 | 0.444 | 0.566 | 0.39 | 0.525 | 0.514 | 0.404 | 0.413 | 0.492 | 0.493 | 0.74 | 0.434
KQLFAYKMLMA [TMC2_Y209_YF] | 0.386 | 0.711 | 0.566 | 0.926 | 0.594 | 0.562 | 0.858 | 0.677 | 0.548 | 0.445 | 0.439 | 0.773 | 0.475 | 1.07 | 1.25 | 1.01
KGKLIYLLGDS [NXPE1_Y350] | 0.343 | 0.529 | 0.478 | 0.922 | 0.42 | 0.391 | 0.803 | 0.521 | 0.434 | 0.471 | 0.661 | 0.639 | 0.551 | 1.24 | 1.2 | 1.17
PRAGVYPEKDQ [DNM2_Y626_L621P] | 0.511 | 0.865 | 0.662 | 1.26 | 0.622 | 0.734 | 1.16 | 0.759 | 0.642 | 0.658 | 0.682 | 1.08 | 0.658 | 0.917 | 0.635 | 0.403
SVTCTYSPDLN [TP53_Y126_A129D] | 0.437 | 0.915 | 0.583 | 1.71 | 0.71 | 0.757 | 1.5 | 0.985 | 0.533 | 0.629 | 0.563 | 1.31 | 0.502 | 0.856 | 0.89 | 0.471
FAFQLYDLDPD [CHP2_Y123_R127P_YF] | 0.571 | 1.05 | 1.8 | 1.26 | 0.698 | 0.981 | 1.26 | 0.907 | 0.568 | 0.62 | 3.52 | 1.25 | 2.84 | 0.999 | 1.02 | 0.982
FADIAYNYRHR [PAH_Y166_G171R] | 0.398 | 0.511 | 0.341 | 0.687 | 0.44 | 0.391 | 0.624 | 0.435 | 0.427 | 0.436 | 0.429 | 0.533 | 0.27 | 0.773 | 0.866 | 0.542
YDEYRYRSFIK [CFTR_Y517_V520F] | 0.518 | 0.957 | 1.51 | 0.946 | 0.596 | 0.54 | 1.06 | 0.679 | 0.495 | 0.64 | 1.62 | 1.14 | 2.33 | 0.849 | 0.901 | 1.21
IYHLSYIHNCE [PDE6B_Y227_L228I] | 4.22 | 4.3 | 1.81 | 1.38 | 0.724 | 0.783 | 1.3 | 2.16 | 2.65 | 1.67 | 2.65 | 1.18 | 2.78 | 1.27 | 1.35 | 0.819
QDEHGYIFRCF [HSPB1_Y133_S135F] | 0.524 | 1.19 | 0.735 | 2.15 | 0.762 | 1.27 | 1.75 | 1.31 | 0.912 | 0.793 | 0.661 | 1.6 | 0.924 | 0.469 | 0.702 | 0.566
PPAPRYHHLAV [LZTR1_Y119_S122L] | 0.556 | 0.664 | 0.71 | 0.964 | 0.514 | 0.606 | 0.868 | 0.745 | 0.377 | 0.491 | 0.552 | 1.19 | 0.444 | 1.36 | 1.45 | 1.98
QRRFVYFFSFL [PTEN_Y176_YF] | 0.618 | 1.12 | 0.57 | 1.46 | 0.61 | 0.563 | 1.6 | 0.908 | 0.573 | 1.91 | 0.567 | 1.15 | 0.656 | 0.821 | 1.13 | 0.642
